We go through 5 molecules from patent publication US20260166185A1 (Y MABS THERAPEUTICS, published 2026).

The target in experiment [1] is T1, CD38 on Daudi cells (UniProt P28907 1-300, limits assumed).
T1 construct: whole, on cells
The experiment in a line: titration binding FACS on Daudi cells. The protocol: Subsequently the EC50 of antibodies samples was determined by titration binding FACS on Daudi cells (for CD38 binding evaluation), on THP-1 cells (for CD33 binding evaluation), on A-431 cells (for EGFR binding evaluation), on MKN-45 cells (for CEACAMS binding evaluation) and on HEK293T (for CD276 binding evaluation). Jurkat E6-1 or HEK293T cell lines were used as negative control, as applicable.

The target of experiment [2] is T2, bio-huCD38 (human (hu), UniProt P28907 43-300, biotinylated (bio-), site not stated). Briefly: SPR, antigen immobilized, antibody as analyte 100-6.25 nM. The protocol:
(§1) SPR analysis was performed on a Biocore 8K+, using a CFJB0944 CM5 sensor chip for immobilization and a SPR running buffer 1×HBS-EP+pH 7.4 (Cytiva, cat no. BR100669) according to the manufacturer's instructions.
(§2) In the second part of this example, antigen was immobilized on the chip and antibody dissolved in the SPR running buffer flowed over the chip.
In general terms: SPR reads the build-up and loss of mass on a sensor chip optically.

Experiment [3] concerns the target T2, bio-huCD38. Briefly: SPR, antibody captured on chip, antigen as analyte 200-6.25 nM. The protocol:
as §1
In the first part of this example the antibody was immobilized on the chip and the antigen dissolved in the SPR running buffer flowed over the chip.

The target in experiment [4] is T2, bio-huCD38. Briefly: SPR, antigen immobilized, antibody as analyte 25-1.6 nM. On the procedure: as §1, §2
Experiment [5] addresses Bio-huHER2/Erb2 (human (hu), UniProt P04626 23-652, biotinylated (bio-), site not stated). The experiment in a line: SPR (Biacore 8K+), immobilized antigen, 25.0-1.6 nM.
The target of experiment [6] is T2, bio-huCD38. Described as above.

B1: CD38-DOTA(fab)-p53_C-Term-LC (bispecific antibody)
light: QAVVIQESALTTPPGETVTLTCGSSTGAVTASNYANWVQEKPDHLFTGLIGGHNNRPPGVPARFSGSLIGDKAALTIAGTQTEDEAIYFCALWYSDHWVIGGGTRLTVLGQPKANPTVTLFPPSSEELQANKATLVCLISDFYPGAVTVAWKADGSPVKAGVETTKPSKQSNNKYAASSYLSLTPEQWKSHRSYSCQVTHEGSTVEKTVAPTECSGGGGSGGGGSGGGGSGGGGGSDVQLQESGGGLVQAGGSLRLSCTGSGRTFRNYPMAWFRQAPGKEREFVAGITWVGASTLYADFAKGRFTISRDNAKNTVYLQMNSLKPEDTAVYSCAAGRGIVAGRIPAEYADWGQGTQVTVSS
heavy: HVKLQESGPGLVQPSQSLSLTCTVSGFSLTDYGVHWVRQSPGKGLEWLGVIWSGGGTAYNTALISRLNIYRDNSKNQVFLEMNSLQAEDTAMYYCARRGSYPYNYFDAWGRGTTVTVSSASTKGPSVFPLAPSSKSTSGGTAALGCLVKDYFPEPVTVSWNSGALTSGVHTFPAVLQSSGLYSLSSVVTVPSSSLGTQTYICNVNHKPSNTKVDKKVEPKSCGGGGSGGGGSKPLDGEYFTLQIRGRERFEMFRELNEALELKDAQAGKEPGGS
notes: VHH at the C-terminus of the light chain; also called YM00013; molecule 12
As a reminder, the EC50 is the concentration at which the effect is half-maximal. A word on the Kd: it is the free concentration of one partner at which half of the binding sites on the other are occupied at equilibrium, for simple one-to-one binding. The low end stands for a tighter complex, the high end for a looser complex. As usually defined, the koff is the first-order rate constant of dissociation. Usually kon stands for a measure of how fast the partners come together. High values mean fast association, low ones slow association. The molecule B1 came in with an EC50 in experiment [1] of 3.75 nM. In experiment [2], this molecule came in with a Kd of 0.313 nM, a koff of 1.3e-05 s⁻¹ and an on-rate (kon) of 41500 M⁻¹ s⁻¹. In experiment [3], this molecule yielded a Kd of 1.28 nM, a koff of 0.000103 s⁻¹ and a kon of 80700 M⁻¹ s⁻¹.

B2: CD38-DOTAM(Fab)-p53 (bispecific antibody)
light: DVQLQESGGGLVQAGGSLRLSCTGSGRTFRNYPMAWFRQAPGKEREFVAGITWVGASTLYADFAKGRFTISRDNAKNTVYLQMNSLKPEDTAVYSCAAGRGIVAGRIPAEYADWGQGTQVTVSSGGGGSGGGGSGGGGSGGGGGSDIQMTQSPSSLSASVGDRVTITCQSSHSVYSDNDLAWYQQKPGKAPKLLIYQASKLASGVPSRFSGSGSGTDFTLTISSLQPEDFATYYCLGGYDDESDTYGFGGGTKVEIKRTVAAPSVFIFPPSDEQLKSGTASVVCLLNNFYPREAKVQWKVDNALQSGNSQESVTEQDSKDSTYSLSSTLTLSKADYEKHKVYACEVTHQGLSSPVTKSFNRGEC
heavy: VTLKESGPVLVKPTETLTLTCTVSGFSLSTYSMSWIRQPPGKALEWLGFIGSRGDTYYASWAKGRLTISKDTSKSQVVLTMTNMDPVDTATYYCARERDPYGGGAYPPHLWGRGTLVTVSSASTKGPSVFPLAPSSKSTSGGTAALGCLVKDYFPEPVTVSWNSGALTSGVHTFPAVLQSSGLYSLSSVVTVPSSSLGTQTYICNVNHKPSNTKVDKKVEPKSCGGGGSGGGGSKPLDGEYFTLQIRGRERFEMFRELNEALELKDAQAGKEPGGS
notes: Tetramerizes through p53 depending on concentration; also called YM00006; molecule 5
On to B2, for which the EC50 in experiment [1] is 0.59 nM. Further, in experiment [4], the Kd was found to be 0.936 nM, the koff turned out to be 1.63e-05 s⁻¹ and the kon was 17400 M⁻¹ s⁻¹. Besides, in experiment [3], binding was put at a Kd of 2.09 nM, the koff was 7.86e-05 s⁻¹ and the kon was determined as 37600 M⁻¹ s⁻¹.

B3: CD38-DOTAM(fab)-dp53 (bispecific antibody)
light: DVQLQESGGGLVQAGGSLRLSCTGSGRTFRNYPMAWFRQAPGKEREFVAGITWVGASTLYADFAKGRFTISRDNAKNTVYLQMNSLKPEDTAVYSCAAGRGIVAGRIPAEYADWGQGTQVTVSSGGGGSGGGGSGGGGSGGGGGSDIQMTQSPSSLSASVGDRVTITCQSSHSVYSDNDLAWYQQKPGKAPKLLIYQASKLASGVPSRFSGSGSGTDFTLTISSLQPEDFATYYCLGGYDDESDTYGFGGGTKVEIKRTVAAPSVFIFPPSDEQLKSGTASVVCLLNNFYPREAKVQWKVDNALQSGNSQESVTEQDSKDSTYSLSSTLTLSKADYEKHKVYACEVTHQGLSSPVTKSFNRGEC
heavy: VTLKESGPVLVKPTETLTLTCTVSGFSLSTYSMSWIRQPPGKALEWLGFIGSRGDTYYASWAKGRLTISKDTSKSQVVLTMTNMDPVDTATYYCARERDPYGGGAYPPHLWGRGTLVTVSSASTKGPSVFPLAPSSKSTSGGTAALGCLVKDYFPEPVTVSWNSGALTSGVHTFPAVLQSSGLYSLSSVVTVPSSSLGTQTYICNVNHKPSNTKVDKKVEPKSCG
notes: No tetramerization domain; also called YM00007; molecule 6
With B3, it took 0.51 nM to reach a half-maximal effect in experiment [1] (EC50). In experiment [4], this molecule showed a Kd of 0.132 nM, a koff of 0.000189 s⁻¹ and a kon of 1.43e+06 M⁻¹ s⁻¹. In experiment [3], this molecule displayed a Kd of 12.7 nM, a koff of 0.000214 s⁻¹ and a kon of 16800 M⁻¹ s⁻¹.

B4: HER2-DOTA(Fab)-p53 (bispecific antibody)
light: QVQLQESGGGSVQAGGSLKLTCAASGYIFNSCGMGWYRQSPGRERELVSRISGDGDTWHKESVKGRFTISQDNVKKTLYLQMNSLKPEDTAVYFCAVCYNLETYWGQGTQVTVSSGGGSGGGSGGGSGGGGSQAVVTQESALTTSPGETVTLTCRSSTGAVTTSNYANWVQEKPDHLFTGLIGGNNNRPPGVPARFSGSLIGDKAALTIAGTQTEDEAIYFCALWYSNHWVFGGGTRLTVLGQPKSSPSVTLFPPSSEELETNKATLVCTITDFYPGVVTVDWKVDGTPVTQGMETTQPSKQSNNKYMASSYLTLTARAWERHSSYSCQVTHEGHTVEKSLSPAECS
heavy: HVKLQESGPGLVQPSQSLSLTCTVSGFSLTDYGVHWVRQSPGKGLEWLGVIWSGGGTAYNTALISRLNIYRDNSKNQVFLEMNSLQAEDTAMYYCARRGSYPYNYFDAWGRGTTVTVSSASTKGPSVFPLAPSSKSTSGGTAALGCLVKDYFPEPVTVSWNSGALTSGVHTFPAVLQSSGLYSLSSVVTVPSSSLGTQTYICNVNHKPSNTKVDKKVEPKSCGGGGSGGGGSKPLDGEYFTLQIRGRERFEMFRELNEALELKDAQAGKEPGGSGGAPHHHHHH
notes: Tetramerizes through p53 depending on concentration; also called YM00018; molecule 2
As to B4, in experiment [5], the Kd is 0.0588 nM, the koff turned out to be 2.25e-05 s⁻¹ and the kon was 383000 M⁻¹ s⁻¹.

B5: CD38-DOTA(Fab)-p53 (bispecific antibody)
light: DVQLQESGGGLVQAGGSLRLSCTGSGRTFRNYPMAWFRQAPGKEREFVAGITWVGASTLYADFAKGRFTISRDNAKNTVYLQMNSLKPEDTAVYSCAAGRGIVAGRIPAEYADWGQGTQVTVSSGGGGSGGGGSGGGGSGGGGGSQAVVIQESALTTPPGETVTLTCGSSTGAVTASNYANWVQEKPDHLFTGLIGGHNNRPPGVPARFSGSLIGDKAALTIAGTQTEDEAIYFCALWYSDHWVIGGGTRLTVLGQPKANPTVTLFPPSSEELQANKATLVCLISDFYPGAVTVAWKADGSPVKAGVETTKPSKQSNNKYAASSYLSLTPEQWKSHRSYSCQVTHEGSTVEKTVAPTECS
heavy: HVKLQESGPGLVQPSQSLSLTCTVSGFSLTDYGVHWVRQSPGKGLEWLGVIWSGGGTAYNTALISRLNIYRDNSKNQVFLEMNSLQAEDTAMYYCARRGSYPYNYFDAWGRGTTVTVSSASTKGPSVFPLAPSSKSTSGGTAALGCLVKDYFPEPVTVSWNSGALTSGVHTFPAVLQSSGLYSLSSVVTVPSSSLGTQTYICNVNHKPSNTKVDKKVEPKSCGGGGSGGGGSKPLDGEYFTLQIRGRERFEMFRELNEALELKDAQAGKEPGGSGGAPHHHHHH
notes: VHH-Fab fusion of two polypeptide chains; Tetramerizes through p53 depending on concentration; also called YM00016; molecule 1
In turn, B5 registered an EC50 in experiment [1] of 0.65 nM. In experiment [6], the Kd amounted to 0.0257 nM, the koff amounted to 1.41e-05 s⁻¹ and the kon worked out at 550000 M⁻¹ s⁻¹.
